Here are results for 41 sequences from the nanobody polyreactivity screen of Harvey et al. (2022).

A short description of this data set: yeast display, Sf9 membrane polyspecificity reagent, FACS + sequencing; frameworks hold sequencing errors. A digest of the protocol: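 Nanobodies from a synthetic yeast display library (Saccharomyces cerevisiae BJ5465), induced 36–48 hours with galactose, were stained 1 hour at 4 °C with 10% biotinylated, detergent-solubilized Sf9 membrane reagent, enriched on streptavidin microbeads, then FACS-sorted. Anti-HA (expression) and streptavidin (reagent binding) fluorescence set low and high (top ~1%) gates. Polyreactivity labels come from the gate of origin. Genes were colony-PCR amplified, MiSeq 2 × 250 sequenced and filtered by CDR length.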
In the case of “QVQLVESGGGLVQAGGSLRLICAASGVTFWSDAMGWYRQAPGKEREFVAAITTSAGRTNYADSVKGRFTISRDNAQNTVYLKMNSLKPEDTAVYYCAARSAYTGLGSGFDYWGQGTQVSVSS”, the “polyreactivity (PSR sort gate)” value was “low polyreactivity”. Take “QVQLVESGGGLVQAGGSLRLSCAASGRTFYRYAMGWYRHAPGKERELVASITRGTSTNYADSVKGRFTISRDNAKNTVYLQMNSLKPEDTAVYYCNRRIFGGQRMYYWGQGTQVTVSS”: the “polyreactivity (PSR sort gate)” value is “high polyreactivity”. As to “QVQLVESGGGLVQAGGSLRLSCAASGRTFWYYAMGWYRQSPGKERELVAVITSGSSTYYADSVKGRFTISRDNAKNTVYLQMNSLKPEDTAVYYCNKLGRIQYDYWGQGTQVTVSS”, the “polyreactivity (PSR sort gate)” value is listed as “high polyreactivity”. Then “QVQLVESGGGLVQAGGSLRLSCAASGFIFFTYAMGWYRQAPGKERELVAAISSRGGSTYYADSVQGRFTISRDNAKKTVYLQMNSLKPEDTAVYYCAAQAYGGYPYGYWGQGTQVTVSS”, with “high polyreactivity”. Regarding “QVQLVESGGGLVQAGGSLRLSCAASGSTFYVYAMGWYRQAPGKERELVAAINFNGGGTYYADSVKGRFTISRDNAKNTVYLQMNSLKPEDTAVYYCYYLYNYWGQGTQVTVSS”, the “polyreactivity (PSR sort gate)” value is listed as “low polyreactivity”. The result for “QVQLVESGGPIVQAGGSLRISCAASGRTYAYKTMGWSRQAPGKERELVAGINSSGGSTYYADSVKGRFTISRDNAKNTVYLQMNSLKPEDTAVYDCAADNSPRPYDSWGQGTQVTVSS” reads “high polyreactivity”. As to “QVQLVESGRGLVQAGGSLRLSCAASGRIFPFYAMGWYRQAPGKERELVAAISSSGGSTYYADSVKGRFTISRDNAKNTVYLQMNSLKPEDTAVYYCAATRNSDGMGYWGQGTLVTVSS”, the “polyreactivity (PSR sort gate)” value is “low polyreactivity”.

With “QVQLVESGGGLVQAGGSLRLSCAASGGTFDTYAMGWYRQAPGKERELVAGIDWSGGSTYYADSVKGRFTISRDYAKNTVYLQMNSLKPEDTAVYYCAADFYYPSQMDYWGQGTQVTVSS”, the “polyreactivity (PSR sort gate)” value is “low polyreactivity”. Take “QVQLVESGGGLVQAGGSLRLSCAASGRIFDSYAMGWYRQAPGKERELVAVISNNDGTTYYADSVKGRFTISRDNAKKTFYLQMNSLKPEDTAVYYCAAEEPLFGYLWYVVTYAGFYDYWGQGTQVTVSS”: the “polyreactivity (PSR sort gate)” value is listed as “low polyreactivity”. As to “QVQLVESGGGLVQAGGSLRLSCAASGSIFRSYAMGWYRHAPGKERELVASISRRGGSTYYADSVKGRFTSSRDNSKNTVYLHMNSRKPEDTAVYYCAAVRYNSRVSTTTSEMYYWGQGTQVTVSS”, the “polyreactivity (PSR sort gate)” value is “low polyreactivity”.

Consider “QVQHVESGGGLVQAGGSLRLSCAASGSTFHDYAMAWYRQATGKEREFVAAIRWRGGSTYYADSVKGRFTISRDNAKNTVYLQMNSLKPEDTAVYYCAADYLQFRKYVVHFDYLGQGTQVTVSS”, for which the “polyreactivity (PSR sort gate)” value is recorded as “low polyreactivity”. Then “QVQLVESGGALVQAGGSLRLSLADSGMTFSQNAMGWYRQAPGKERELVAAISSSGTSTYYADSVKGRFTISRDNAKNTVYLQMNSLKPEDTAVYYCNAPPGTFQWQGHSDYWGQGTQVTVSS”, with “low polyreactivity”. In the case of “QFQLVESGGGFVQAGGSLRLSCAASGRIFGPYAMGWYRQAPGKERELVAAISFSGSGTYYADSVKGRFTISRDNAKNTVYLQMNSLKPEDTAVYYCAATSRKIVAYDHDYWGQGTQVTVSS”, the “polyreactivity (PSR sort gate)” value was “low polyreactivity”. Regarding “LVQHVESGGGLVKAGGSLRLICAASGRTFLRNAMGWYRQAPGKERELVATITRGGSTYYADSVKGRFTISRDNAKNTVYLEKTSLKPEDTAVYYCSKDFSGGFRRPDYGYWGQGPQVTVSS”, the “polyreactivity (PSR sort gate)” value was “low polyreactivity”. As for “QVQLVESGGGLVQAGGSLRLSCAASGFIFDTYAMGWYRQAPGKERDLVAVISSGGSTYYADSVKGRVTISRDNAKNTVYLQMNSLKPEDTAVYYCAADSGYLGIYGDDYSWGQGTQVSVSS”, the “polyreactivity (PSR sort gate)” value is on record as “low polyreactivity”. As for “QVQLVESGGGLVQAGGSLRLSCAASGRIFKLYAMGWYRQAPGKERELVAAISTSAGSTNYADSVKGRFTISRDNSKNTVYLQMNSLKPEDTAVYYCAVAGVSTYYTYYYWGQGTQVTVSS”, the “polyreactivity (PSR sort gate)” value was “low polyreactivity”. In the case of “QVQLVESGGGLVQAGGSLRLSCAASGLTISYYAMGWYRQAPGKERELVAAISTDSSTNYADSVKGRFTISRDNAKNTVYLQMISLKPEDTAVYYCAAVVVYGPIHGYWGQGTQVTVSS”, the “polyreactivity (PSR sort gate)” value is “low polyreactivity”.

Turning to “QVQLVESGGGLVQAGGSLRLSWAASGSTFRNYAMGWYRQAPGKEREFVAAISRSGGSTYYADSVKGRFTISRDNANNPVYLQMISLKPEETAVYYCNKESFWGPDNYWGQGTQETVSS”, the “polyreactivity (PSR sort gate)” value is “high polyreactivity”. For “QVQLVESGGGLVQAGGSLRLSCAASGFTFSVYAMGWYRQAPGKERELVADIDWSGGSTYYADSVKGRFTISRDNAKNTVYLQMNSLKPEDTAVYYCAADYYYPDSYVQGTSGEYWGQGTQVTVSS”, the “polyreactivity (PSR sort gate)” value was “low polyreactivity”.

With “QVQLVESGGGLVQAGGSLRLSCAASGITFYLNAMVWYRQAPGKERELVADITVSGGSTYYADSVKGRFTISRDYAKNTVYLQMNRLKPEDTAVYYCAADLTISYSQEYYYWGQGTQVTVSS”, the “polyreactivity (PSR sort gate)” value was “low polyreactivity”.

For “QVQLVESGGGLVQAGGSLRLSCAASGRTFGWYTMGWYRPAPGKERELVAAISRSGTSTYYADSVKGRFTISRDNAKNTVYLQMNSLKQEDTAVYYCAQYVNPRGGNYWGQGTQVTVSS”, the “polyreactivity (PSR sort gate)” value is “high polyreactivity”. “QVQLVESGGGLVQAGGSLRLSCAASGSTFYTNAMGWYRQAPWKERELVAAISNAVSTYYADSVKGRFTISRDNAKNTVYLQMKSLKPEDTAVYYCAADPIGLSSLWFRYSVSDVDYWGQGTQVTVSS”: the “polyreactivity (PSR sort gate)” value is given as “low polyreactivity”. As to “QDQLVESGGGLVQAGGSLRLSCAASGITIYRYVMGCSRQAPGKEREFVASITQSTGSTHYADSVKGRFTISRDNAKNTVYLQMNSLKPEDTAVYYCNAQKIVYYWVTLFPYYYWGQGTQVTVSS”, the “polyreactivity (PSR sort gate)” value is listed as “low polyreactivity”.

Regarding “QVQLVESGGGLVQAGGSLRLSCAASGRIFLYYTMGWYRQAPGKERELDAAITRSGGSTYYADSVKGRFTISRDNAKNTVYLQMNSLKPEDTAVYYCNRAYVRYVPMNYWGQGTQVTVSS”, the “polyreactivity (PSR sort gate)” value is “high polyreactivity”.

On to “QVQLVESGGGLVQAGGSLRLSCAASGFIFRANAMGLYREAPGKERELVATISRSGGSTSYADSVKGRFTISRDNAKNTVYLQMNSLKPEDTAVYYCNKRTPYLRPIRDYWGQGTQVTVSS”, for which the “polyreactivity (PSR sort gate)” value is “high polyreactivity”. With “QVQLVESGGGLVQAGGSLRLSCAASGSTFTYNTLVWYRQAPGKERELVAAISWGGGGTYYADSVKGRFTISRDNAKNTVYLQMNSLKPEDTAVYYCNADPWWDYGTFDYWGQGTQVTVSS”, the “polyreactivity (PSR sort gate)” value is “low polyreactivity”. The result for “QVQLQESGGGLVQASGSIFHEPNMCWYRQAPGKERELVAGISSGANTYYADSVKGRFTISRDNAKNTVYLQMNSLKPEDTAVYHCAVVVHLYTELRYWGQDTQVTVSS” reads “high polyreactivity”; that for “QVQLVESGGGLVQAGGSLRLSCAASGSIIDTYAMGWYRQAPGKERELVASWSGGSTYYADSVKGRFTISRDNAKNTVYLQMNSLKPEDTAVYYCAKDYYVQPPGTRDDYWGQGTQVTVSS”, “low polyreactivity”; that for “QVQLVESGGGLVQAGGSLRLSCAASGRTIYQYAKGWYRPAPGKERELVAAISRGGSTNYADSLKGRFTISRDNAKNTVLLQLNSLKPEDTAVYDCASWYKCLSLKRLYERDYWGHGTQVTVSS”, “high polyreactivity”. As for “QVQLVESGGGLVQAGGSLRLSCAASGRTFSYYTMGWYRQATGKERELVARISNRGTNTYYADSVKGRFTISRDNAKITVYLPMNSLKQEDTAVYYCDKFYYTSIVGYDSWGQGTQVTVSS”, the “polyreactivity (PSR sort gate)” value was “low polyreactivity”.

With “QVQLVESGGGLVQAGGSLRLSCAASGSIFYGYVMGWYRQAPGKERELVAAISRSGGRTYYADSVKGRFTISRDNAKNTVYLQMNSQKPEDTAVYDCNARQAGTPYKYAYYGRYYWGQGTQVTVSS”, the “polyreactivity (PSR sort gate)” value is “high polyreactivity”. Turning to “QVQLVESGGGLVQAGGSLRLSCAASGGTFQAYAMGWYRQAPGKERELVAAISRSGGRTYYADSVKGRFTISRDNAKNTVYLQMNSLKPEDTAVYYCNAGAYYRNEMDYWGQGTQVTVSS”, the “polyreactivity (PSR sort gate)” value is on record as “high polyreactivity”. Then “QVQLVESGGGLVQAGGSLRLSCAASGRIFYYYAMGWYRQAPGKERELVATISGIGGSTYYADSVKGRFTISRDNAKNTVYLQMNSLKPEDTAVYFCTADYPTSYPLFKSGFDYWGQGTQVTVSS”, with “low polyreactivity”; and “QVQLVESGGGLVQAGGSLRLSCAASGSTFSLYMGWYRQAPGKERELVAAITYSGGRTYYADSVKGRFTITLDNAKNTFYLQMNSVNPEDTAVYYCATVFNDLTVYEDWSRFDYWGQGTQVTVSS”, with “low polyreactivity”; and “QVQLVESGGGLVQAGGSLRLSCAASGRIFTYYAMGWYIQAPGKERELVASITGSGGSTDYADSVKGRFTISRDNAKNTVYLQRNSLKPEDTAVYYCAADGLSYGPLYNYDYWGQGTQVTVSS”, with “low polyreactivity”. The result for “QVQLVESGGGLVQAGGSLRLSCAASGSTFTFNAMGWYRQAPGKERELVAVISSGGSTYYADSVKGRFTISRDNAKNTVYLQMNSLKPEDTAVYYCNKVYGYFGQYYLRYNYWGQGTQVTVSS” reads “low polyreactivity”; that for “QVQLVESGGGLVQAGGSLRLSCAASGSIFLWNAMGWYRQAPGKEREFVASITSRGGSTYYADSVKGRFTISRDNAKNTVYLQMNSLKPEDTAVYYCAAVRSKYWYYQGGYSSYGYWGQGTQVTVSS”, “high polyreactivity”; that for “QVHLVESGGGLVQAGGSLRLSCAASGSTIFLYMGWYRQAPGKERELVAAITVSGGSTYYADSVKGRFTISRDNAKNTVYLQMNSLKPEDTAVYYCNADWVLRYDYWGLGTQVTVSS”, “low polyreactivity”. The result for “QVQLVESGGGLVQAGGSLRLSCDASGFTFYYYAMGWYRPAPGKERELVAAISSSGSSTYYADSVKGRFTISRDNAKNTVYLQMNSLKPEDTAVYYCNARRYEYLWGDYWGQGTQVTVSS” reads “high polyreactivity”; that for “QVQLVESGGGLVQAGGSLRLSCAASGLTFEYNAMGWYRQAPGKERELVATISNGGITSYADSVKGRFTISRDNAKNTVYLQMNSLKPEDTAVYYCAASYADSPTTDQLWLEYDSWGQGTQVTVSS”, “low polyreactivity”; that for “QVQLVESGGGLVQAGGSLRLSCAASGSTFVNYVMGWYRQAPGKERELVAAISRRGTSTRYADSVKGRFTISRDNAKNTVYLQMNSLKPEDTAVYYCAATRYVGVTGYGYWGQGTQVTVSS”, “high polyreactivity”.
